Experimental data as given in paper PMC11960969, “Mdga2 deficiency leads to an aberrant activation of BDNF/TrkB signaling that underlies autism-relevant synaptic and behavioral changes in mice” (PLOS Biology, 2025).

System: hippocampal proteins
Experiment: DIA quantification proteomics, hippocampus of Mdga2+/- vs WT mice
Parameters: species or system mouse
Settings: S3 Table, downregulated DEPs; for log2FC: Mdga2+/- vs WT mouse hippocampus (HET-HIP-VS-WT-HIP), SE, pvalue and adj_pvalue in own columns c3-c5; for Class: regulation class of the protein, HET-HIP-VS-WT-HIP
Summary of the method: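 Hippocampi from 1.5–2-month-old male Mdga2+/− mice and WT littermates; 100 μg protein trypsin-digested, peptides high-pH fractionated. DDA-built spectral library, DIA by nano-LC–MS/MS with Spectronaut and mProphet QC. DEPs called at fold change >1.1 and p <0.05.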

B1: sp¦Q5PR69¦CRAD_MOUSE (protein, UniProt Q5PR69 1-1291, looked up)
Capping protein-inhibiting …: MGARAFSHDSIFIPDGGAESEQTVQAMSQDNILGKVKTLQRQLGKNIKFGQRPSNAIPMKKAGSTDASSEEDFVLTSPMEIVTQQDIVPSDTENKSSDTPSSSSPLNLPEAGSDMEEKVAPVKPSRPKRHLSSAGTIESVNLDAIPLAIARLDNSAARHKLAVKPKNQRVSRKHRWLAQDRQNEPGSFESQSSLDQNGQLGEDKHIWHGEEPEPLESHEEKRLHEEYWRELEAKCKRQKAEAAEKRRQEEQRRQALERRLWEESLRQELLEEEEEGEEEEEVKEEGEEGEEVGLQPRAGKVPPEEGHQSGPEEQRCTEQELGGADDPARLEAEERRREQEEAERQAEKLRQREAERQEEEQKQREAERQEEEARQCEAERQAEKLRQREAERQEEEARQREAERQAEKLRQREAERQEEELRQREEAERQEKLRQRDAESQEEELRQREAERQRAQEEDAKGMLQEEEEEAKRIEELKGKETPEPLVEEGPQSPEGESQPWLTDDADQRSPLQRDLEKPGEREREDLESAGQREIAEEPRGEGEPAEQSGDLDAHCGGVDGEGKETAQTDSPQPQERQMEGTPAPEENEATAADIDRKVEELRWQEVDERQTMPRPYTFQVSSGSRQILFPKVNLSPVTPAKDASLAPAAQEPPAPRGAASHALPSALSIPHTAILVTGAQLCGPAVNLSQIKDTACKSLLGLSEEKRPMDVPTVESRAGSGKSRPAPESPSNAAALAEWASIRSRILKNSEGDQRGDREPARAGDEPVPRARCDSRGNVRRTPPVNAKFSIMPAWQKFSDSGAETFRQSLDGESGRKKPGLAPSEETAPQPHAAAQQEVSQEPPDTTDGCKFAKDLPSFLVPGLPSPQKAASRTESTTTLDSETTSDVGNPDPAMPGGEEKASPFGIKLRRTNYSLRFHCDQQAEQKKKKRHSSTGDSVGGATPATGSVSGESEPEATFLKHGPSLPQERKPALSPRKDSAESHSSGHYVAVAQSGLPPASGQTPAPEQDRAVSKMPSMQKPALAPKPASQTPPSSPLSKLSRPHLVELLARRAGKLDSEPSETAKESSDNQPPSPSLPEELKGQKRDEKDVPEKKPASPPLPAGQQERPSLIPETGRKEKPVLQSRHSLDGSKVTEKVETAQPLWITLALQKQKGFREQQATREERKQAREAKQAEKLSKETVSVSLQPGSSRASKTAPVHKPAAPSEEKKPETAVSRLQRREQLKKSNTLPTSVTVEISDSAPSAALVKDVTKRFSTPDAAPVSTEPAWLALAKRKAKAWSDCPQIIK
  log2FC: -1.882
  Class: Down

B2: sp¦Q9D7X1¦KCTD4_MOUSE (protein, UniProt Q9D7X1 1-259, looked up)
BTB/POZ domain-containing …: MERKIIRREKEREYEGRHNSVEDAEQGKNCKSTLMTLNVGGYLYITQKQTLTKYPDTFLEGIVNGKILCPFDADGHYFIDRDGLLFRHVLNFLRNGELLLPEGFRENQLLAQEAEFFQLKGLAEEVKSRWEKEQLTPRETTFLEITDNHDRSQGLRIFCNAPDFISKIKSRIVLVSKSRLDGFPEEFSVSSNIIQFKYFIKSENGTRLVLKEDNTFVCTLETLKFEAIMMALKCGFRLLTSLDCSKGSIVHSDALHFIK
  log2FC: -1.758
  Class: Down

B3: sp¦Q9EPQ7¦STAR5_MOUSE (protein, UniProt Q9EPQ7 1-213, looked up)
StAR-related lipid transfer …: MDPSWATQESEAVAEKVLRYRRDASGWKKCREGNGVSISWRPSEEFPGNLYRGEGILCGTPEEVWDCIKPVASGLREKWDDNVSSFEIVQSITDMLCVSRTSTPSAAMKLISPRDFVDLVLVKKYEDGTISSNATHVEHPLCPPKPGFVRGFNHPCGCFCEPLPGDPNKTNLVTFFQTDLSGYLPQSVVDSFFPRSMAEFYPNLQKAVRKFHH
  log2FC: -1.896
  Class: Down

B4: sp¦O54983¦CRYM_MOUSE (protein, UniProt O54983 1-313, looked up)
Ketimine reductase …: MKRAPAFLSAEEVQDHLRSSSLLIPPLEAALANFSKGPDGGVMQPVRTVVPVAKHRGFLGVMPAYSAAEDALTTKLVTFYEGHSNTAVPSHQASVLLFDPSNGSLLAVMDGNVITAKRTAAVSAIATKLLKPPGSDVLCILGAGVQAYSHYEIFTEQFSFKEVRMWNRTRENAEKFASTVQGDVRVCSSVQEAVTGADVIITVTMATEPILFGEWVKPGAHINAVGASRPDWRELDDELMRQAVLYVDSREAALKESGDVLLSGADIFAELGEVISGAKPAHCEKTTVFKSLGMAVEDLVAAKLVYDSWSSGK
  log2FC: -1.898
  Class: Down

B5: sp¦P50172¦DHI1_MOUSE (protein, UniProt P50172 1-292, looked up)
11-beta-hydroxysteroid …: MAVMKNYLLPILVLFLAYYYYSTNEEFRPEMLQGKKVIVTGASKGIGREMAYHLSKMGAHVVLTARSEEGLQKVVSRCLELGAASAHYIAGTMEDMTFAEQFIVKAGKLMGGLDMLILNHITQTSLSLFHDDIHSVRRVMEVNFLSYVVMSTAALPMLKQSNGSIAVISSLAGKMTQPMIAPYSASKFALDGFFSTIRTELYITKVNVSITLCVLGLIDTETAMKEISGIINAQASPKEECALEIIKGTALRKSEVYYDKSPLTPILLGNPGRKIMEFFSLRYYNKDMFVSN
  log2FC: -1.766
  Class: Down

B6: sp¦Q8K4I3¦ARHG6_MOUSE (protein, UniProt Q8K4I3 1-771, looked up)
Rho guanine nucleotide …: MNPEERLVTWLISLGVLESPKKTVCDPEEFLKSSLKNGVVLCKLINRLLPGSVEKYCLEPQTEADCIDNINDFLKGCATLQVEVFEPDDLYSGANFSKVLNTLLAVNKATEDQLSERPCGRSSSLSAATSSQTNPQVAVPSTAPEQHSEEKAEMTENGSHQLIVKARFNFKQTNEDELSVCKGDIIYVTRVEEGGWWEGTLNGRTGWFPSNYVREIKPSERPLSPKAIKGFDTAPLTKNYYTVVLQNILDTEKEYAKELQSLLVTYLRPLQSNNNLSTVEFTCLLGNFEEVCTFQQTLCQALEECSKFPENQHKVGGCLLNLMPHFKSMYLAYCANHPSAVNVLTQHSDDLERFMENQGASSPGILILTTSLSKPFMRLEKYVTLLQELERHMEDTHPDHQDILKAIIAFKTLMGQCQDLRKRKQLELQILSEPIQAWEGDDIKTLGNVIFMSQVVMQHGACEEKEERYFLLFSSVLIMLSASPRMSGFMYQGKIPIAGMVVNRLDEIEGSDCMFEITGSTVERIVVHCNNNQDFQEWMEQLNRLTKGPTSCGSLSKTSSSSCSTHSSFSSTGQPRGPLEPPQIIKPWSLSCLRPAPPLRPSAALGYKERMSYILKESSKSPKTMKKFLHKRKTERKASEEEYVIRKSTAALEEDAQILKVIEAYCTSASFQQGTRKDSVPQVLLPEEEKLIIEETRSNGQTIIEEKSLVDTVYALKDEVKELKQENKKMKQCLEEELKSRKDLEKLVRKLLKQTDECIRSESSSKTSILQ
  log2FC: -1.975
  Class: Down

B7: sp¦P06802¦ENPP1_MOUSE (protein, UniProt P06802 1-906, looked up)
Ectonucleotide …: MERDGDQAGHGPRHGSAGNGRELESPAAASLLAPMDLGEEPLEKAERARPAKDPNTYKVLSLVLSVCVLTTILGCIFGLKPSCAKEVKSCKGRCFERTFSNCRCDAACVSLGNCCLDFQETCVEPTHIWTCNKFRCGEKRLSRFVCSCADDCKTHNDCCINYSSVCQDKKSWVEETCESIDTPECPAEFESPPTLLFSLDGFRAEYLHTWGGLLPVISKLKNCGTYTKNMRPMYPTKTFPNHYSIVTGLYPESHGIIDNKMYDPKMNASFSLKSKEKFNPLWYKGQPIWVTANHQEVKSGTYFWPGSDVEIDGILPDIYKVYNGSVPFEERILAVLEWLQLPSHERPHFYTLYLEEPDSSGHSHGPVSSEVIKALQKVDRLVGMLMDGLKDLGLDKCLNLILISDHGMEQGSCKKYVYLNKYLGDVNNVKVVYGPAARLRPTDVPETYYSFNYEALAKNLSCREPNQHFRPYLKPFLPKRLHFAKSDRIEPLTFYLDPQWQLALNPSERKYCGSGFHGSDNLFSNMQALFIGYGPAFKHGAEVDSFENIEVYNLMCDLLGLIPAPNNGSHGSLNHLLKKPIYNPSHPKEEGFLSQCPIKSTSNDLGCTCDPWIVPIKDFEKQLNLTTEDVDDIYHMTVPYGRPRILLKQHHVCLLQQQQFLTGYSLDLLMPLWASYTFLRNDQFSRDDFSNCLYQDLRIPLSPVHKCSYYKSNSKLSYGFLTPPRLNRVSNHIYSEALLTSNIVPMYQSFQVIWHYLHDTLLQRYAHERNGINVVSGPVFDFDYDGRYDSLEILKQNSRVIRSQEILIPTHFFIVLTSCKQLSETPLECSALESSAYILPHRPDNIESCTHGKRESSWVEELLTLHRARVTDVELITGLSFYQDRQESVSELLRLKTHLPIFSQED
  log2FC: -2.366
  Class: Down

B8: sp¦Q9ERI2¦RB27A_MOUSE (protein, UniProt Q9ERI2 2-221, looked up)
Ras-related protein Rab-27A: SDGDYDYLIKFLALGDSGVGKTSVLYQYTDGKFNSKFITTVGIDFREKRVVYRANGPDGAVGRGQRIHLQLWDTAGQERFRSLTTAFFRDAMGFLLLFDLTNEQSFLNVRNWISQLQMHAYCENPDIVLCGNKSDLEDQRAVKEEEARELAEKYGIPYFETSAANGTNISHAIEMLLDLIMKRMERCVDKSWIPEGVVRSNGHTSADQLSEEKEKGLCGC
  log2FC: -2.259
  Class: Down

B9: sp¦P28076¦PSB9_MOUSE (protein, UniProt P28076 21-219, looked up)
Proteasome subunit beta type-9: TTIMAVEFDGGVVVGSDSRVSAGTAVVNRVFDKLSPLHQRIFCALSGSAADAQAIADMAAYQLELHGLELEEPPLVLAAANVVKNISYKYREDLLAHLIVAGWDQREGGQVYGTMGGMLIRQPFTIGGSGSSYIYGYVDAAYKPGMTPEECRRFTTNAITLAMNRDGSSGGVIYLVTITAAGVDHRVILGDELPKFYDE
  log2FC: -1.875
  Class: Down

B10: sp¦Q8BUB4¦WDFY2_MOUSE (protein, UniProt Q8BUB4 1-400, looked up)
WD repeat and FYVE …: MAAEIQPQPLTRKPILLQRVEGSQEVVNMAVIVPKEEGVISVSEDRTVRVWLKRDSGQYWPSIYHAMPSPCSCMSFNPETRRLSIGLDNGTISEFILSEDYNKMTPVKNYQAHQSRVTMVLFVLELEWVLSTGQDKQFAWHCSESGQRLGGYRTSAVASGLQFDVETRHVFIGDHSGQVTILKLEQENCTLLTSFRGHTGGVTALCWDPVQRVLFSGSSDHSVIMWDIGGRKGTAIELQGHNDKVQALSYAQHTRQLISCGGDGGIVVWNMDVERQETPEWLDSDSCQKCDQPFFWNFKQMWDSKKIGLRQHHCRKCGKAVCGKCSSKRSSIPLMGFEFEVRVCDSCHEAITDEERAPTATFHDSKHNIVHVHFDATRGWLLTSGTDKVIKLWDMTPVVS
  log2FC: -1.823
  Class: Down
